B1: IL-10: human recombinant IL-10 (Sigma) (protein, UniProt P22301 19-178, looked up)
Interleukin-10: SPGQGTQSENSCTHFPGNLPNMLRDLRDAFSRVKTFFQMKDQLDNLLLKESLLEDFKGYLGCQALSEMIQFYLEEVMPQAENQDPDIKAHVNSLGENLKTLRLRLRRCHRFLPCENKSKAVEQVKNAFNKLQEKGIYKAMSEFDIFINYIEAYMTMKIRN

Key:
[1] = tested on: tibialis anterior muscles of mdx mice; assay: Intramuscular transfer of dystrophin plasmid pTG11025, dystrophin immunohistochemistry; format: in vivo, mouse; settings: pTG11025 i.m. with adjuvant (IL-10 0.1 μg, DMSO 10% final, G-actin 10 μg), notexin 3 days before, 7 days after injection; mean +/- sem
Experimental: (§1) Plasmids are prepared according to Bischoff et al. (Analytical Biochemistry 254 (1997), 69-81). The tested interleukin-10s were mixed with the plasmid preparation (pTG11033: CMV promoter, β-globin intron, luciferase cassette; pTG11025: CMV promoter, β-globin intron, dystrophin cassette; both diluted in 0.9% NaCl), prior to intramuscular injection. 25 μg of plasmid are injected per muscle in 5 to 10 week-old C57BI/10 or mdx mice. The 2 tibialis anterior (right and left) muscles were injected (each muscle was considered as a sample, which means number of samples per condition=2×number of mice per condition).
(§2) One week after injection of the composition, mice were killed and the tibialis anterior muscles were retrieved and frozen. Based on the injected vector, either luciferase activity was determined in muscle extracts, or dystrophin expression was evaluated by immunohistochemistry.
Muscle samples were frozen in liquid nitrogen-cooled isopentane and stored at −80° C. […]
In a second experiment mdx mice were 3 times injected intramuscularly with pTG11025 (dystrophin) plus DMSO, G-actin and IL-10 after notexin-induced muscle regeneration. Plasmid-adjuvant injections were repeated 3 times in raw on a daily basis and dystrophin expression (immunohistochemistry) was evaluated 7 days after the last injection. […]

[2] = tested on: tibialis anterior muscles of C57BL/10 mice; assay: Intramuscular transfection of luciferase plasmid pTG11033, luciferase activity of injected muscles; format: in vivo, mouse; settings: IL-10 0.01 and 0.1 μg + 25 μg pTG11033 per muscle, dose-dependent
Experimental: as §1, §2
Luciferase activity was quantified using a conventional measurement kit (Luciferase Assay System, Promega). […] Luciferase activity was expressed as number of RLU emitted per minute.
Proteins were measured on 10 μl samples using a VCA Protein Assay Kit (Pierce). […]
One week after injection of the vectors, the mice were killed and the tibialis anterior muscles were retrieved and frozen. Luciferase activity was determined on muscle extracts. […]

Row | Molecule | Number of dystrophin-positive fibers per cryosection [1] | increase of luciferase expression [2] [factor]
1 | C[S+](C)[O-] [DMSO, dimethylsulfoxide] | 37.8 +/− 5.5 | –
2 | B1 | 21.7 +/− 1.9 | 3
